Article PMC9818449

Target: VN-HOXA9 (human) (UniProt P31269)
Assay: split reporter (BiFC, NanoBiT); individual BiFC in live HEK293T cells: plix-VN-HOXA9, plix-CC-ORF and plix-mCherry co-transfected, 18 h with doxycycline 100 ng/mL, confocal imaging; HOXA9/PBX1 as calibrator

Sequence of UniProt P31269 (P31269 whole entry): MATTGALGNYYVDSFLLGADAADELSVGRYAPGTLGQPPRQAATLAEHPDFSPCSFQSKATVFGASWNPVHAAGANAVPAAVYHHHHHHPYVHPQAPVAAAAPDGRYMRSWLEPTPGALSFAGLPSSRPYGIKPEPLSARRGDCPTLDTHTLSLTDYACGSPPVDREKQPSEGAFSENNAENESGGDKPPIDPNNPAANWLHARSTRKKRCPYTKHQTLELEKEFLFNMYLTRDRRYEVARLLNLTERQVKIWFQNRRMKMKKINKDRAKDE

BiFC fluorescence as percent of HOXA9/PBX1 BiFC: < 15%
Substance: CC-C6orf201 (from UniProt B3KW47 1-115) (natural protein)
